Earlier results, collected in paper PMC3652491.

Target: Nef peptide 12-residue peptide (Human immunodeficiency virus 1) (UniProt P04324)

In the case of Hck SH3 (from UniProt P08631), the Kd is given as 90 µM.
